Consider four substances from patent US5763174.

Data set [1] has as its target recombinant F-WT DRADA protein (full-length 140 kD human DRADA protein carrying an epitope-tag peptide FLAG at the NH2-terminal) (human).
For data set [2], the target named is T1, DRADA (dsRNA adenosine deaminase, purified 93/88/83 kD forms) (Bos taurus) (UniProt F1MUM9).
T1 sequence: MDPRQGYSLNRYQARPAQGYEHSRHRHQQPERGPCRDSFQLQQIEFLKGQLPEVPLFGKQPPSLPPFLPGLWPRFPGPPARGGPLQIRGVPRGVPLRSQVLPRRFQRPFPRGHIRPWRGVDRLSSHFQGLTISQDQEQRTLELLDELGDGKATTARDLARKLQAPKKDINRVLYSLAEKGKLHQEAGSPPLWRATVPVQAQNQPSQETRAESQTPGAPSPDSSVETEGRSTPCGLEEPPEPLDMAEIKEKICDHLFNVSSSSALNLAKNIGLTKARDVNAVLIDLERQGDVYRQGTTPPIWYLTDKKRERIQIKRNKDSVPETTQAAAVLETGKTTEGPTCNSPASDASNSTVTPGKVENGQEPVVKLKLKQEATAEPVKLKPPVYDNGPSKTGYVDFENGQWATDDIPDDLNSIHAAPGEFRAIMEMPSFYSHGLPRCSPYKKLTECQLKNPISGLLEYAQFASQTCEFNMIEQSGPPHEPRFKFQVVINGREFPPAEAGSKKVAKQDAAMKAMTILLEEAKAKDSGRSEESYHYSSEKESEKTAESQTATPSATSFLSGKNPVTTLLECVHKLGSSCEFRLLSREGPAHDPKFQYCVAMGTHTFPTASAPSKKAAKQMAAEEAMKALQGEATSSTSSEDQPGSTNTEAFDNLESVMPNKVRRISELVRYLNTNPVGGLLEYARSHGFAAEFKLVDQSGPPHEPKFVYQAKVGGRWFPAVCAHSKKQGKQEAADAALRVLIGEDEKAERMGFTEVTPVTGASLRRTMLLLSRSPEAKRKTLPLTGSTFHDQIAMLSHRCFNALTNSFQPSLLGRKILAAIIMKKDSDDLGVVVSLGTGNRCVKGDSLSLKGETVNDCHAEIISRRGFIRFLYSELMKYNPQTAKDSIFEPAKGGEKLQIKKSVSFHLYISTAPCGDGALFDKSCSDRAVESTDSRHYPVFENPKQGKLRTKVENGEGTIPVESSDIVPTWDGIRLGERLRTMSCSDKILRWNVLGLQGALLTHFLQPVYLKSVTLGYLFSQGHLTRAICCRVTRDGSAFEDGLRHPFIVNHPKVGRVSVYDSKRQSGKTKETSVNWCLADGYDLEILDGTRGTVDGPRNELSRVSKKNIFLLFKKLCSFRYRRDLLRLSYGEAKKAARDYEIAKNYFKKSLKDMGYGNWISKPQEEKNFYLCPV
Conditions: assay not described; species/form of DRADA not stated in the passage.

In data set [3] the target is T2, F-WT DRADA (Homo sapiens) (UniProt P55265).
T2 sequence: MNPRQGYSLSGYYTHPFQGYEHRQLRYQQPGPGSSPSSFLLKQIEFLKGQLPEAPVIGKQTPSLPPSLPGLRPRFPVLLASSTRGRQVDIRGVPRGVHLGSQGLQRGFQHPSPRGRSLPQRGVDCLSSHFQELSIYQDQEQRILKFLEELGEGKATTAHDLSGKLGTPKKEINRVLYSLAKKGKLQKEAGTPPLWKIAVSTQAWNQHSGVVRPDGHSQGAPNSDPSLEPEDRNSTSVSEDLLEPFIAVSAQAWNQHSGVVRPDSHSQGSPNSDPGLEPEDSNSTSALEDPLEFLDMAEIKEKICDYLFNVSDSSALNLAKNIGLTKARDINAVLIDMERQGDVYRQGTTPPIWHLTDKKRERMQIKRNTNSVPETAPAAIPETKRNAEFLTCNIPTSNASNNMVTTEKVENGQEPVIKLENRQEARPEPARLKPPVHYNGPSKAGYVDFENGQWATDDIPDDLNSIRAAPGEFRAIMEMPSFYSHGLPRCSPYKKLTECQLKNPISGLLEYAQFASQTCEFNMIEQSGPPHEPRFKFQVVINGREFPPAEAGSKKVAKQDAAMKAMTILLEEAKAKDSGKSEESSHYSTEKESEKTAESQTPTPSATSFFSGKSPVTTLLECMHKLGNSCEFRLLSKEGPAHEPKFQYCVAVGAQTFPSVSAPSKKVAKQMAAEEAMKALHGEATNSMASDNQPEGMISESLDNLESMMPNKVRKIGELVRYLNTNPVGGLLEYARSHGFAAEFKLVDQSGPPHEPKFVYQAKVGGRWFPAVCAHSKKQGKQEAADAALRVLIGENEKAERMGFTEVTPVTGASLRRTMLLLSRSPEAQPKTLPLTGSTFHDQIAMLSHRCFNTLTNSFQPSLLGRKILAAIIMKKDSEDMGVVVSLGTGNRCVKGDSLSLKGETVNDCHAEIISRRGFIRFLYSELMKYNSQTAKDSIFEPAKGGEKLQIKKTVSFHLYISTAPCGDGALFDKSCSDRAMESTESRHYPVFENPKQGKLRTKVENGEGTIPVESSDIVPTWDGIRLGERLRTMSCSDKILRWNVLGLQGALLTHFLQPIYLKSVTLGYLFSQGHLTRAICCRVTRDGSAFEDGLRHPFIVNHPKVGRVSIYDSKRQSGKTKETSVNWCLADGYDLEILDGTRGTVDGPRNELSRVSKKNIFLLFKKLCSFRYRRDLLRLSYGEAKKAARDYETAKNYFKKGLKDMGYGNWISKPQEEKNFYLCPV
To be noted: editing at intronic +60 site by DRADA alone; no Q/R editing alone, up to 34% Q/R with 293 extract cofactor.

Data set [4] addresses recombinant F-WT DRADA protein (full-length 140 kD human DRADA protein carrying an epitope-tag peptide FLAG at the NH2-terminal) (human). The source holds these as a separate data set.

Read-outs that look alike come from different tables or passages of the source.

Regarding “293 nuclear extract (unidentified cofactor protein(s) of 293 human embryonic kidney cells) (pool or library)”, the Q/R site editing of synthetic GluR-B RNA (in vitro editing, primer extension assay) in data set [1] worked out at 14%. Consider 575 bp dsRNA, for which the dissociation constant Kd (usually the constant that tells how readily two partners part at equilibrium) in data set [2] was found to be 230 pM. GluR-B Bmini RNA (745 nt): the activity in data set [3] was less than 79%. For “HeLa nuclear extract (unidentified cofactor protein(s)) (pool or library)”, in data set [4], the Q/R site editing of synthetic GluR-B RNA (in vitro editing, primer extension assay) came out at 63%.
